How the values were obtained:
[1] = target: transferrin receptor (TfR, CD71), recombinant from pAcGP67A-TfR (Homo sapiens, UniProt P02786 P02786:121-760); assay: filter; DPBS with Mg2+ and Ca2+, room temperature, 30 min; conditions: tags: His-tag; expressed in Sf9 insect cells, plasmid pAcGP67A-TfR (Addgene); chain copies: 2 inferred; label: 32P (filter), AF488 or Atto647N (cells); stem with 12-nt asymmetric bulge, C-rich bulge, GNRA tetraloop
[2] = target: transferrin receptor (TfR, CD71), native on human cells (Homo sapiens, UniProt P02786 P02786:1-760); assay: flow; apparent, Jurkat cells, RPMI 10% FBS, tRNA and ssDNA, 37 C 1 h; no staining of ATP-arrested cells; conditions: chain copies: 2 inferred; label: 32P (filter), AF488 or Atto647N (cells); stem with 12-nt asymmetric bulge, C-rich bulge, GNRA tetraloop
Sequence of transferrin receptor (TfR, CD71), native on human cells (P02786 whole entry, one chain of several): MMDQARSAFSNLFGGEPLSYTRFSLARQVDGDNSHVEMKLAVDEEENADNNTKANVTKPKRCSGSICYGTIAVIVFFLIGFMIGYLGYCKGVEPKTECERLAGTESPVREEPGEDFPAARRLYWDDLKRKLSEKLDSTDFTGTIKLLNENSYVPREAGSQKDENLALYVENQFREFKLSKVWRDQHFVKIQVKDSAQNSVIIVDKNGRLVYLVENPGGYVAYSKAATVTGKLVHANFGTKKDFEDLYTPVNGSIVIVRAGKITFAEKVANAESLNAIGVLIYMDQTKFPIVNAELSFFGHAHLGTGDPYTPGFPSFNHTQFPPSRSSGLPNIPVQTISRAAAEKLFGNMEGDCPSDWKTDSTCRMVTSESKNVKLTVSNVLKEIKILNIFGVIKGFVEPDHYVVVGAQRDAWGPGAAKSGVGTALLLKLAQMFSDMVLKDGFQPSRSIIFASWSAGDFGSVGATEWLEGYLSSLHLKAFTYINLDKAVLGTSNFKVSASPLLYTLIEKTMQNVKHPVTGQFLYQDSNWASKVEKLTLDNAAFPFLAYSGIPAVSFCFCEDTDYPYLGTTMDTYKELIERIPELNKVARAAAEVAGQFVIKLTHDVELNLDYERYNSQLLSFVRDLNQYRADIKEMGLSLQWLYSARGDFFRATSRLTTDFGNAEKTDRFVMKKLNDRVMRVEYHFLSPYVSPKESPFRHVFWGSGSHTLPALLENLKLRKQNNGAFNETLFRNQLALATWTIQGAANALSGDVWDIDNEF
Procedure: Following a 1 hour incubation at 37° C., the cells were washed twice with 1 mL FACS buffer and then resuspended in 500 μL FACS buffer containing 7AAD to exclude dead cells in the analysis. The apparent binding constant was determined from a fit of the mean fluorescence versus the aptamer concentration using the Eq. 1 above.

Sequence of transferrin receptor (TfR, CD71), recombinant from pAcGP67A-TfR (P02786 121-760, one chain of several): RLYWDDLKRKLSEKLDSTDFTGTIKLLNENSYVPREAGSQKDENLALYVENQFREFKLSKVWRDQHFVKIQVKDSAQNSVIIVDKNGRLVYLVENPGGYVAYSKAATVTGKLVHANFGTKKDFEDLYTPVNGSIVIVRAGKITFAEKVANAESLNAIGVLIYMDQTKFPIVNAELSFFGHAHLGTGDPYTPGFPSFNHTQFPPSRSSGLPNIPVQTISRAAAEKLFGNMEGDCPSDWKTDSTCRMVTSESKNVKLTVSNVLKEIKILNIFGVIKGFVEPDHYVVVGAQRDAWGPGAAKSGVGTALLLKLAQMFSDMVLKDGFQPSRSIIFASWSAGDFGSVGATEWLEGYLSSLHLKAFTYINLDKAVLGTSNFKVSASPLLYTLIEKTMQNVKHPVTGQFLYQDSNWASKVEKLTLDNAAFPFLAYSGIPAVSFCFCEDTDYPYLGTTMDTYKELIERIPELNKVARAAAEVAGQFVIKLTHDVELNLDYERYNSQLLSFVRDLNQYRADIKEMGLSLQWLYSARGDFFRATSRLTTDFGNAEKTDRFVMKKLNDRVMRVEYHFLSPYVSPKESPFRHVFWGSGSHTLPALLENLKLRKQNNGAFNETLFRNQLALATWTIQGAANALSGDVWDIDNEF

Binder: GGGGGAUCAAUCCAAGGGACCCGGAAACGCUCCCUUACACCCC (ssRNA, 2'-F pyrimidines; 3' idT; 5' thiol C6) [c2.min]
- Kd [1]: 102 nM
- Kd [2]: 104 nM
